Results published in patent US20220098290A1 (JUNTENDO EDUCATIONAL FOUNDATION, published 2022).
Numbering of substitutions follows the chain as printed. Values belong to the binder of their own block, whether it stands above or below them.

Columns and labels:
[1] = molecular target: T1, peptide having cysteine at the amino-terminal of the amino acid sequence (RRMMRTKMR) included in SEQ ID NO: 1; assay: SPR
T1 peptide: CRRMMRTKMR

[2] = molecular target: T2, Del 52 type mutant CALR protein (full-length) (human, UniProt P27797 18-417); assay: immunoblotting and ELISA on Del 52 and its alanine mutants
T2 construct: mature; also called 52-nucleotide deletion type; CALR Del 52
T2 sequence (looked up): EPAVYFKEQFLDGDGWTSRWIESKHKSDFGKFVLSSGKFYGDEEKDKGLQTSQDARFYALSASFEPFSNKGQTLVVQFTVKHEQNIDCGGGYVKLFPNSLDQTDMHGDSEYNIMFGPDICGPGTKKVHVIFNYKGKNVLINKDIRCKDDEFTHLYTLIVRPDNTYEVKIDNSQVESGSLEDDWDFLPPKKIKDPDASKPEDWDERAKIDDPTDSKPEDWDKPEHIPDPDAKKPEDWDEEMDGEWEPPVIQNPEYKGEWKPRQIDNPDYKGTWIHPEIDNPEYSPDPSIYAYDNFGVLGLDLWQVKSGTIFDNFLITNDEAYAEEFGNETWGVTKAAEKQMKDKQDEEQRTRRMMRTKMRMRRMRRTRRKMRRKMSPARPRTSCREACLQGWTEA
Method: It was verified that clone B3, C6, and G1 antibodies recognize the amino acid sequence used as an antigen on the mutant CALR protein. The reactivities of the respective antibodies against mutant CALR proteins each having alanine substituted for one amino acid at each position of the amino acids used as the antigen and the amino acids around it were evaluated by immunoblotting (FIG. 13A) and ELISA (FIG. 13B).
The Del 52 type mutant CALR proteins each having alanine (A) substituted for one amino acid at each position of the amino acids in the region from the 367th threonine (T) to the 378th arginine (R) or the protein not having substitution were expressed in HEK 293T cells, and culture supernatants containing secreted mutant CALR proteins were prepared by centrifugation (1,600 g×5 min, 4° C.). The resulting protein solutions were each heat-treated in the presence of SDS and a reducing agent, then developed on a gel by SDS polyacrylamide electrophoresis, electrically transferred on a PVDF membrane, and reacted with a TBS-T solution containing 5% skimmed milk at room temperature for 1 hour, followed by reaction with a 5% BSA/TBS-T solution containing a peroxidase-labeled clone B3, C6, or G1 antibody or a mouse anti-CALR antibody (Abcam plc., Cat #ab22683) at 4° C. overnight. The PVDF membrane reacted with the mouse anti-CALR antibody was washed with a TBS-T solution and was then reacted with a 5% skimmed milk/TBS-T solution containing a peroxidase-labeled anti-mouse IgG antibody (Jackson Immuno Research Inc., Cat #115-035-003) at room temperature for 1 hour. Subsequently, all of the PVDF membranes were washed with a TBS-T solution and were then reacted with a peroxidase luminescence reagent (Thermo Fisher Scientific K.K., Cat #34094). The resulting signals were detected using a FUSION image pickup apparatus (manufactured by Vilber-Lourmat S.A.).

[3] = molecular target: T3, peptide having cysteine at the amino-terminal of the amino acid sequence (RRMMRTKMR) included in SEQ ID NO: 1; assay: SPR (Biacore T200), clone B3 antibody immobilised, peptide at 1.25-20 nM
T3 construct: Synthetic peptide, analyte in SPR; also called antigen used for production of the antibody
T3 peptide: CRRMMRTKMR
Method: Sensor chips (GE Healthcare, Cat #BR100530) for surface plasmon resonance analysis were loaded on a surface plasmon resonance analyzer Biacore T200 (GE Healthcare) and were equilibrated with an HBS-EP buffer (GE Healthcare, Cat #BR100669). Clone B3 antibody adjusted to a concentration of 10 μg/mL with Acetate 5.5 (GE Healthcare, Cat #BR100352) was immobilized using an Amine coupling kit (GE Healthcare, Cat #BR100050) at an immobilized amount of 200 RU. Subsequently, surface plasmon resonance was measured using a peptide having cysteine at the amino-terminal of the amino acid sequence ([…]) included in SEQ ID NO: 1 adjusted to concentrations of 20, 10, 5, 2.5, and 1.25 nM with an HBS-EP buffer, and the dissociation constant was acquired with Biacore T200 Evaluation Software.

Kd [1]: 855 pM
binding result [2]: binds
binding result [3]: binds
B1: clone B3 antibody (antibody, V domains shown)
VH: QVQLQQSGAELVKPGSSVKISCKASGYTFTRNFIHWIKQQPGNGLEWIGWIFPGDGDTEYNQKFNGKATLTADKSSSTAYMQLSSLTSEDSAVYFCARGNYNYEYFDYWGQGVMVTVSS
VL: DIQMTQSPASLSASLGETVSIECLASEDIYSYLAWYQQKPGKSPQLLIFAANRLQDGVPSRFSGSGSGTQFSLKISGMQPEDEGDYFCLQGSKFPYTFGPGTKLELN
notes: Rat monoclonal antibody purified from a hybridoma (WKY/Izm rat x mouse SP2 myeloma), detected with anti-rat IgG; also called rat clone B3 antibody

binding result [2]: binds
B2: clone C6 antibody (antibody, V domains shown)
VH: QVQLQQSGAELVKPGSSVKISCKASGYTFTSYFVHWIKQQPGDGLEWIGWIYPGDGDTEYNHKFNGKSTLTADRSSSTAYMQLSSLTSEDSAVYFCARGNYYDGREVMDAWGQGASVTVSS
VL: DVVLTQTPPTLSATIGQSVSISCRSSQSLLDSDGETYLNWLLQRPGQSPQLLIYSVSNLESGVPNRFSGSGSETDFTLKISGMEAEDLGVYYCMQATHGPYTFGAGTKLELK
notes: Rat monoclonal antibody purified from a hybridoma, detected with anti-rat IgG; also called rat clone C6 antibody

binding result [2]: binds
B3: clone G1 antibody (antibody, V domains shown)
VH: B2 VH with H62Q, S68A
VL: B2 VL with S48C, M83V, A96G
notes: Rat monoclonal antibody purified from a hybridoma, detected with anti-rat IgG; also called rat clone G1 antibody
